From patent US20160060347A1 (MorphoSys, published 2016)

T1: human CXCR2 (human, UniProt P25025 1-360)
T1 construct: Expressed on Flp-In CHO cells (FACS, Fab-ZAP, ADCC, CDC) or on bought PathHunter CHO cells (beta-arrestin assay); the construct in the PathHunter cells is not described; also called chemokine receptor CXCR2; CXCR2 CHO Flp-In cells
T1 sequence: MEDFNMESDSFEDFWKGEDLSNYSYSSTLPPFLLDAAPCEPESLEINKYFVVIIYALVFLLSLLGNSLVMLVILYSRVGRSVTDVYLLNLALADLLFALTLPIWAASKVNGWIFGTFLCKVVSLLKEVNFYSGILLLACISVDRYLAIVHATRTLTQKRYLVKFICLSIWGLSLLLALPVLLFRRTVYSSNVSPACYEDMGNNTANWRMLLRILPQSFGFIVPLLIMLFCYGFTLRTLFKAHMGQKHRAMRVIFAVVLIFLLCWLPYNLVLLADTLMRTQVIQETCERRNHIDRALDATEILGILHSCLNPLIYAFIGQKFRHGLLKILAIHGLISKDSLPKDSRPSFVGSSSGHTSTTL


molecular target: T1, human CXCR2; assay: FACS, CXCR2 Flp-In CHO cells, IgG1
Experimental: Human CXCR2-expressing Flp-In™ CHO cells were harvested at ˜80% confluence washed once with PBS (Gibco, Cat #14190-094) and detached using Versene (Invitrogen, Cat #15040-033). Subsequently, cells were counted and centrifuged at 250×g for 5 min at 4° C. Afterwards, cells were diluted in Superblock (Thermo Fisher Perbio Science, Cat #37515) to a cell concentration of 2E+05-1E+06/mL and 100 μL/well were transferred to 96-well microtiter plate (Nunc, Cat#163320). Cells were once centrifuged, supernatant discarded and antibodies added at 1 μg/mL (unless stated otherwise), incubated for 1 h at 4° C. and washed twice with FACS buffer (PBS/3% FCS/0.02% NaN3). Binding of anti-CXCR2 antibodies was detected by incubation of Phycoerythrin-conjugated anti-human IgG (Dianova, Cat #109-116-097) for 1 h at 4° C. Samples were subsequently measured using FACS Array (Becton Dickinson).
All six Fabs were converted into IgG1 format and were expressed in a human cell line and purified via protein A chromatography for further analysis. All antibodies were tested for specific CXCR2 binding on CXCR2-expressing CHO Flp-In™ cells by FACS. Additionally, inhibition of CXCR2 mediated beta-arrestin signaling by the antibodies was analyzed. Furthermore, IC₅₀ concentrations for cytotoxicity of respective antibodies via secondary immunotoxin in a Fab-ZAP assay using CXCR2 expressing CHO Flp-In™ cells were determined together with the capability of the antibodies to induce complement-dependent cellular cytotoxicity (CDC) and antibody-dependent cellular toxicity (ADCC). Respective experimental settings as outlined in Example 3 were used (data of one representative experiment are shown).

Binder	EC50 [pM]
CX2-Mab #5 (IgG1 format) (antibody, V domains shown, Fab converted into IgG1 format, expressed in a human cell line, protein A purified) VH: EVQLLESGGGLVQPGGSLRLSCAASGFTFNSNAMSWVRQAPGKGLEWVSFISYSGSHTYYADSVKGRFTISRDNSKNTLYLQMNSLRAEDTAVYYCARYTRFLSRPAFDPWGQGTLVTVSS VL: DIVLTQPPSVSGAPGQRVTISCTGSSSNIGAGYDVHWYQQLPGTAPKLLIYYNSKRPSGVPDRFSGSKSGTSASLAITGLQAEDEADYYCGAYDRKMNSYVFGGGTKLTVLG	17700
CX2-Mab #1 (IgG1 format) (antibody, V domains shown, Fab converted into IgG1 format, expressed in a human cell line, protein A purified; also called parental) VH: QVQLVQSGAEVKKPGSSVKVSCKASGGTFSSYAISWVRQAPGQGLEWMGGIIPIVGEAKYAQKFQGRVTITADESTSTAYMELSSLRSEDTAVYYCARDSSGYDGYYAFAYWGQGTQVTVSS VL: DIVLTQPPSVSGAPGQRGTISCSGSSSNIGSSSVNWYQQLPGTAPKLLIYRNNQRPSGVPDRFSGSKSGTSASLAITGLQAEDEADYYCGATDFSANQVVFGGGTKLTVLG	400
CX2-Mab #2 (IgG1 format) (antibody, V domains shown, Fab converted into IgG1 format, expressed in a human cell line, protein A purified) VH: QVQLVQSGAEVKKPGASVKVSCKASGYTFSRYAMHWVRQAPGQGLEWMGVINPYNGNTRYAQKFQGRVTMTRDTSISTAYMELSRLRSEDTAVYYCARGSHIQAGAFDYWGQGTLVTVSS VL: DIQMTQSPSSLSASVGDRVTITCRASQGINNRLNWYQQKPGKAPKLLIYDGSSLQSGVPSRFSGSGSGTDFTLTISSLQPEDFATYYCQQYIHFPVTFGQGTKVEIKR	> 667000
CX2-Mab #3 (IgG1 format) (antibody, V domains shown, Fab converted into IgG1 format, expressed in a human cell line, protein A purified; also called parental) VH: EVQLLESGGGLVQPGGSLRLSCAASGFTFSSYWMSWVRQAPGKGLEWVSVISYSGSETFYADSVKGRFTISRDNSKNTLYLQMNSLRAEDTAVYYCARGRVGYAFDYWGQGTLVTVSS VL: DIVLTQPPSVSGAPGQRVTISCSGSSSNIGVNYVNWYQQLPGTAPKLLIYSNNQRPSGVPDRFSGSKSGTSASLAITGLQAEDEADYYCQSRASGFYSVVFGGGTKLTVLG	200

Stronger by EC50, values ahead:

EC50 [pM]	Binder
100	CX2-Mab #4 (IgG1 format) (antibody, V domains shown, Fab converted into IgG1 format, expressed in a human cell line, protein A purified; also called parental) VH: EVQLLESGGGLVQPGGSLRLSCAASGFTFSSNGMSWVRQAPGKGLEWVSAISSSGSKTYYADSVKGRFTISRDNSKNTLYLQMNSLRAEDTAVYYCARGYGFDVWGQGTLVTVSS VL: DIVLTQPPSVSGAPGQRVTISCSGSSSNIGVNIVNWYQQLPGTAPKLLIYSTSNRPSGVPDRFSGSKSGTSASLAITGLQAEDEADYYCATRDGISKSVVFGGGTKLTVLG
100	CX2-Mab #6 (IgG1 format) (antibody, V domains shown, Fab converted into IgG1 format, expressed in a human cell line, protein A purified) VH: EVQLLESGGGLVQPGGSLRLSCAASGFTFSSYTMSWVRQAPGKGLEWVSAIHSSGSSTYYADSVKGRFTISRDNSKNTLYLQMNSLRAEDTAVYYCARVPAYYGFDHWGQGTLVTVSS VL: DIELTQPPSVSVSPGQTASITCSGDSLGAFYVHWYQQKPGQAPVLVIYRTNNRPSGIPERFSGSNSGNTATLTISGTQAEDEADYYCASYASRNRVFGGGTKLTVLG
